Source: patent US20130005646A1 (Novo Nordisk, published 2013)
Starred links: 1 amine or outer side, 2 acyl side, 3 side chain; linkers in the order of their positions; H or OH if unused. Positions of bridges follow the written chain, without caps; N, C: chain ends. Groups on a side chain read outwards from the residue. No end group written: not given here. *: point of attachment. C20 diacid = O=C(O)CCCCCCCCCCCCCCCCCCC(=O)*; C18 diacid = O=C(O)CCCCCCCCCCCCCCCCC(=O)*; γGlu = O=C(O)[C@H](CCC(=O)[*:2])N[*:1]; AEEA = NCCOCCOCC(=O)O

T1: human amylin 3(a) receptor (human calcitonin receptor + RAMP-3) (human, UniProt P30988 25-474; O60896 24-148)
T1 sequence (looked up) 1: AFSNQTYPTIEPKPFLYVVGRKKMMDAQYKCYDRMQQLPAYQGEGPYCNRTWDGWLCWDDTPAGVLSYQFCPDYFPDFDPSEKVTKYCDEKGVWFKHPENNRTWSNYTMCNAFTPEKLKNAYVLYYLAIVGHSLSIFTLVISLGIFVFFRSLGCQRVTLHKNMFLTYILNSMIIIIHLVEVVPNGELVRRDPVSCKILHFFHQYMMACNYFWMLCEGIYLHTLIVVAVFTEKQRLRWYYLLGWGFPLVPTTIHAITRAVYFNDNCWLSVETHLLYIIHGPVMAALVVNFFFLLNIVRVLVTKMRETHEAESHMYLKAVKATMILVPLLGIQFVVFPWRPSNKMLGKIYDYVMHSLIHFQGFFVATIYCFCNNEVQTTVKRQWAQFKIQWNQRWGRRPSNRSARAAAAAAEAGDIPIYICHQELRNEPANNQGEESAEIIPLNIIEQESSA
T1 sequence (looked up) 2: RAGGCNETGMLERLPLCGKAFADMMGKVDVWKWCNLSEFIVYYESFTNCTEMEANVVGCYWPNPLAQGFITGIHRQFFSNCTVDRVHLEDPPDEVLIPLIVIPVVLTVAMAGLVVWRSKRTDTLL

T2: human calcitonin (a) receptor (human, UniProt P30988 25-474)
T2 sequence (looked up): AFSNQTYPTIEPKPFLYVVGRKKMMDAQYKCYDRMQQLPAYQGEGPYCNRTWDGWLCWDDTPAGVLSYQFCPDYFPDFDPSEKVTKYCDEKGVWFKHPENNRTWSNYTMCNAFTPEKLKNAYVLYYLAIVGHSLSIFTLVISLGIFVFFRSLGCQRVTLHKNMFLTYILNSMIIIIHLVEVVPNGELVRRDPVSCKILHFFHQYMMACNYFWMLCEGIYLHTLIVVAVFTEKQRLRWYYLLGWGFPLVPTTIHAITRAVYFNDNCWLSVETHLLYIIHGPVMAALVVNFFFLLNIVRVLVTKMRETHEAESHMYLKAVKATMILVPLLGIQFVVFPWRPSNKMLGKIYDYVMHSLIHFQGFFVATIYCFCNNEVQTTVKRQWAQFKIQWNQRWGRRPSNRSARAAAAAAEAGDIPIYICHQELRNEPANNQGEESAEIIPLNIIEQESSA


Legend:
[1] = target: T1, human amylin 3(a) receptor (human …); test: cell-based or functional assay
[2] = target: T2, human calcitonin (a) receptor; test: cell-based or functional assay

Amylin receptor human EC50 [1] [nM] | CTa receptor human EC50 [2] [nM] | Binder
0.291 | 0.266 | {C20 diacid-γGlu}-KCNTATCATQRLAEFLHHSSDNFGPILPPTNVGSHTY-NH2 (disulfide 2-7; SMILES CC[C@H](C)[C@H](NC(=O)[C@@H]1CCCN1C(=O)CNC(=O)[C@H](Cc1ccccc1)NC(=O)[C@H](CC(N)=O)NC(=O)[C@H](CC(=O)O)NC(=O)[C@H](CO)NC(=O)[C@H](CO)NC(=O)[C@H](Cc1c[nH]cn1)NC(=O)[C@H](Cc1c[nH]cn1)NC(=O)[C@H](CC(C)C)NC(=O)[C@H](Cc1ccccc1)NC(=O)[C@H](CCC(=O)O)NC(=O)[C@H](C)NC(=O)[C@H](CC(C)C)NC(=O)[C@H](CCCNC(=N)N)NC(=O)[C@H](CCC(N)=O)NC(=O)[C@@H](NC(=O)[C@H](C)NC(=O)[C@@H]1CSSC[C@H](NC(=O)[C@H](CCCCN)NC(=O)CC[C@H](NC(=O)CCCCCCCCCCCCCCCCCCC(=O)O)C(=O)O)C(=O)N[C@@H](CC(N)=O)C(=O)N[C@@H]([C@@H](C)O)C(=O)N[C@@H](C)C(=O)N[C@@H]([C@@H](C)O)C(=O)N1)[C@@H](C)O)C(=O)N[C@@H](CC(C)C)C(=O)N1CCC[C@H]1C(=O)N1CCC[C@H]1C(=O)N[C@H](C(=O)N[C@@H](CC(N)=O)C(=O)N[C@H](C(=O)NCC(=O)N[C@@H](CO)C(=O)N[C@@H](Cc1c[nH]cn1)C(=O)N[C@H](C(=O)N[C@@H](Cc1ccc(O)cc1)C(N)=O)[C@@H](C)O)C(C)C)[C@@H](C)O) [N-alpha-[(S)-4-Carboxy-4-(19-carboxynonadecanoylamino)butyryl]-[Glu14,His17,Asp21,His35]-pramlintide]
0.391 | 0.247 | {C20 diacid-γGlu}-EKCNTATCATQRLAEFLHHSSQNFGPILPPTNVGSHTY-NH2 (disulfide 3-8; not fully specified; printed as N-alpha-[(S)-4-Carboxy-4-(19-carboxynonadecanoylamino)butyryl]-Glu-[Glu14,His17,Gln21,His35]-pramlintide)
0.39 | 0.194 | KCNTATCATQRLANFLHHSSHNFGK([AEEA-AEEA-γGlu-19‑carboxyheptadecanoyl])ILSSTNVGSHTY-NH2 (disulfide 2-7)
0.0555 | 0.0315 | {C20 diacid-γGlu}-KCNTATCATQRLAEFLHHSSQNFGPILPPTNVGSNTP-NH2 (disulfide 2-7; SMILES CC[C@H](C)[C@H](NC(=O)[C@@H]1CCCN1C(=O)CNC(=O)[C@H](Cc1ccccc1)NC(=O)[C@H](CC(N)=O)NC(=O)[C@H](CCC(N)=O)NC(=O)[C@H](CO)NC(=O)[C@H](CO)NC(=O)[C@H](Cc1c[nH]cn1)NC(=O)[C@H](Cc1c[nH]cn1)NC(=O)[C@H](CC(C)C)NC(=O)[C@H](Cc1ccccc1)NC(=O)[C@H](CCC(=O)O)NC(=O)[C@H](C)NC(=O)[C@H](CC(C)C)NC(=O)[C@H](CCCNC(=N)N)NC(=O)[C@H](CCC(N)=O)NC(=O)[C@@H](NC(=O)[C@H](C)NC(=O)[C@@H]1CSSC[C@H](NC(=O)[C@H](CCCCN)NC(=O)CC[C@H](NC(=O)CCCCCCCCCCCCCCCCCCC(=O)O)C(=O)O)C(=O)N[C@@H](CC(N)=O)C(=O)N[C@@H]([C@@H](C)O)C(=O)N[C@@H](C)C(=O)N[C@@H]([C@@H](C)O)C(=O)N1)[C@@H](C)O)C(=O)N[C@@H](CC(C)C)C(=O)N1CCC[C@H]1C(=O)N1CCC[C@H]1C(=O)N[C@H](C(=O)N[C@@H](CC(N)=O)C(=O)N[C@H](C(=O)NCC(=O)N[C@@H](CO)C(=O)N[C@@H](CC(N)=O)C(=O)N[C@H](C(=O)N1CCC[C@H]1C(N)=O)[C@@H](C)O)C(C)C)[C@@H](C)O) [N-alpha-[(S)-4-Carboxy-4-(19-carboxynonadecanoylamino)butyryl]-[Glu14,His17,Gln21,Pro37]-pramlintide]

Second part, the binder before the results:

Binder | Amylin receptor human EC50 [1] [nM] | CTa receptor human EC50 [2] [nM]
KCNTATCATQRLAEFLVHSSNNFGK([AEEA-AEEA-γGlu-C18 diacid])ILPPTNVGSNTY-NH2 (disulfide 2-7; N-terminus assumed; SMILES CC[C@H](C)[C@H](NC(=O)[C@H](CCCCNC(=O)COCCOCCNC(=O)COCCOCCNC(=O)CC[C@H](NC(=O)CCCCCCCCCCCCCCCCC(=O)O)C(=O)O)NC(=O)CNC(=O)[C@H](Cc1ccccc1)NC(=O)[C@H](CC(N)=O)NC(=O)[C@H](CC(N)=O)NC(=O)[C@H](CO)NC(=O)[C@H](CO)NC(=O)[C@H](Cc1c[nH]cn1)NC(=O)[C@@H](NC(=O)[C@H](CC(C)C)NC(=O)[C@H](Cc1ccccc1)NC(=O)[C@H](CCC(=O)O)NC(=O)[C@H](C)NC(=O)[C@H](CC(C)C)NC(=O)[C@H](CCCNC(=N)N)NC(=O)[C@H](CCC(N)=O)NC(=O)[C@@H](NC(=O)[C@H](C)NC(=O)[C@@H]1CSSC[C@H](NC(=O)[C@@H](N)CCCCN)C(=O)N[C@@H](CC(N)=O)C(=O)N[C@@H]([C@@H](C)O)C(=O)N[C@@H](C)C(=O)N[C@@H]([C@@H](C)O)C(=O)N1)[C@@H](C)O)C(C)C)C(=O)N[C@@H](CC(C)C)C(=O)N1CCC[C@H]1C(=O)N1CCC[C@H]1C(=O)N[C@H](C(=O)N[C@@H](CC(N)=O)C(=O)N[C@H](C(=O)NCC(=O)N[C@@H](CO)C(=O)N[C@@H](CC(N)=O)C(=O)N[C@H](C(=O)N[C@@H](Cc1ccc(O)cc1)C(N)=O)[C@@H](C)O)C(C)C)[C@@H](C)O) | 0.076 | 0.101
KCNTATCATQRLAEFLVHSSK([AEEA-AEEA-γGlu-19‑carboxyheptadecanoyl])NFGPILPPTNVGSHTY-NH2 (disulfide 2-7) | 0.999 | 0.601
KCNTATCATQRLAEFLHHSSSNFGK([AEEA-AEEA-γGlu-19‑carboxyheptadecanoyl])ILSSTNVGSHTY-NH2 (disulfide 2-7) | 0.416 | 0.142
KCNTATCATQRLAEFLVHSSK([AEEA-AEEA-γGlu-19‑carboxyheptadecanoyl])NFGPILPSTNVGSHTY-NH2 (disulfide 2-7) | 1.09 | 0.48
KCNTATCATQRLAEFLVHSSK([AEEA-AEEA-γGlu-19‑carboxyheptadecanoyl])NFGPILSSTNVGSHTY-NH2 (disulfide 2-7) | 0.858 | 0.336
